Experiment: yeast display, Sf9 membrane polyspecificity reagent, FACS + sequencing; frameworks hold sequencing errors
Summary of the method: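 Nanobodies from a synthetic yeast display library (Saccharomyces cerevisiae BJ5465), induced 36–48 hours with galactose, were stained 1 hour at 4 °C with 10% biotinylated, detergent-solubilized Sf9 membrane reagent, enriched on streptavidin microbeads, then FACS-sorted. Anti-HA (expression) and streptavidin (reagent binding) fluorescence set low and high (top ~1%) gates. Polyreactivity labels come from the gate of origin. Genes were colony-PCR amplified, MiSeq 2 × 250 sequenced and filtered by CDR length.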

Row | Sequence | polyreactivity (PSR sort gate)
1 | QVQLVESGGGLVQAGGSLRLSCAASGFTFYLYAMGWYRQAPGKERELVAAISSRGGTTYYADSVKGRFTISRDNAKNTVYLQMNSLKPEDTAVYYCNVARVYHIYDYWGQGTQVTVSS | high polyreactivity
2 | QVQLVESGGGLVQAGCSLRLSCAASGFIFVRNAMGWYRQAPGKERELVAAISSSGGSTNYADSVKGRFTISRDNAKNTVYLQMNSLKPEDTAVYYCNAQRYYDYWGQGTQVTVSS | high polyreactivity
3 | QVQLVESGGGLGQAGGSLRLSCAASGSIFPDYVMGWYRQAPGKARELVAAISRGGSTYYADSVKGRFTISRDNAKNTVYLQMNSLKPEDTAVYYCAADNPHWRYEYWGPGTQVTVSS | high polyreactivity
4 | QDQLVESRGGIVQAVRSLRLSCAASGSIFIDNAMGWYRQAPGKESEFVAAISKSATSTYYADSVKGRFTISRDNAYNTVYLEMKSLIPEDTAVYYCAVRRPRPYSNYYYWGQGTQVNVSS | high polyreactivity
5 | QVQLVESGGGLVQAGGSLRLSCAASGITFYGYAMGWYRQAPGKERELVARISSGGTTKYADSVKGRFTISRDNAKNTVYLQMNSLKPEDTAVYYCAVGGYWWYYGFYYWGQGTQVTVSS | high polyreactivity
6 | QVQLVESGGGLVQAGGSLRLSCAASGRNLEYYAMGWYRQAPGQERELVATITSRGDTTHYADSVKGRFTISRDNAKNTVYLQMNSLKPEDTAVYYCAAAYVEYTPYRWYGDDYWGQGTQVTVSS | low polyreactivity
7 | QVQLVESGGGLVQAGGSLRLSCAASGIIFGTNAMGWYRQAPGKERELVAYITSGGSTYADSVKGRFTISRDNAKNTFYLQMHSLKPEDTEVYYCAAYVFWAFYEYDYWGQGTQVTVSS | low polyreactivity
8 | QVQLVESGGGLVQAGGSLRLSCAASGSTFFYNAMGWYRQAPGKERELVASINDRAGRTYYADSVKGRFTISRDNAKNTVYLQMNSLKPEDTAVYYCAAEPWYKFDYDYWGQGTQVTVSS | low polyreactivity
9 | QVQLVESGGGLVQAGGSLRLICSASGSTFNLYAMGWYRQAPWTERELVAAISYRGGTTYYADSVKGRFTISRDNAKHTVYLQMNSLKREDTAVYYCSAGWRPRSLRDASKYDFWGQGTQVTVSS | low polyreactivity
10 | QVQLVESGGGLVQAGGSLRLSCAASGSIFAPYAMGWYRQAPGKERELVAAISTGGRTHYADSVKGRFTISRDNAKNTVYLHMNSLKPEDTAVYYCAAARPTAGVIRPHYYWGQGTQVTVSS | high polyreactivity
11 | QVQLVESGGGLVQAGGSLRLSCAASGSTFYTYDMGWYRQAPGKERELVASITSGGSTNYADSVKGRFTISRDNAKNTVYLQMNSLKPEDTAVYYCAVGTYTIYSGTLYDYKYYWGQGTQVTVSS | low polyreactivity
12 | QVQLVESGGGLVQAVGRLRLSCAASGGIFSINAMGWYRQAPGKERELVAAIRWNSGRTYYADSVKGRFTISRDNAKNTVYLQMNSLKPEDTAVYYCAVRDYISWEDYYWGQGTQVTVSS | high polyreactivity
13 | QVQLVESGGGLVQAGGSLRLSCAASGIIFYHNALGWYRQAPGKERELVASITEIGGSTYYADSVKGRFTISRDNEKNTVYLQMNSLKPEDTAVYYCARDWRNKWFGYWGLGTQVTVSS | low polyreactivity
14 | QVQLVESGRGLVQAGGSLRLSCAASGLTFVYYDMGWYRQAPGKERELVAAITYIGTSTYYADSVKGRFTISRDNAKNTVYLQMNSLKPEDTAVYYCAAPFPIRSGESWRTDLGYDYWGQGTQVTVSS | low polyreactivity
15 | QVQLVESGGGLVQAGGSLRLSCAASGSTFDSYAMGWYRQAPGKERELVAAISTSGGSTYYADSVKGRFTISRDNAKNTVYLQMNSLKPEDTAVYYCAAYSISSRMNYWGQGSQVTVSS | high polyreactivity
16 | QVQLVESGGGLVQAGGSLRLSCAASGSTLSQNAMGWYRQAPGKEREFVADISGSGDSTYYADSVKGRFTISRDNAKNTVYLQMNSLKPEDTAVYYCATPSPHVGLKWEYDYWGQVTQVTVSS | low polyreactivity
17 | QVQLVESGGGLVQAGGSLRLSCAASGRTFKDYAMGWYRPAPGKERELVAAISWSGGDTYYADSVKGRFTISRDNAKNTVYLQMNSLKPEDTAVYYCNADPSGVFFYSLEFDYWGQGTQVTVSS | low polyreactivity
18 | QVQLQESGGGLVQAGGSLRLSCAASGSLFLFYTMGWYRQAPVIEREFVAGITLGTTTYNADSVKGRFTISRDNVKNTVFLQMNSLKPEDTAVYYCAVAVGHYTEFWYWGQGTQVTMSS | high polyreactivity
19 | QVQLVESGGGLVQAGGSLRLSCAASGFIFYSYAMGWYRQAPGKERELVAAISWSGGRTYYADSVKGRFTISRDNAKNTVYLQMNSLKPEDTAVYYCNADDYSFSFTVPYYIEYDYWGQGTQVTVSS | high polyreactivity
20 | QVQLVESGGGLVQAGGSLRLSCAASGRTFRENAMGWYRQAPGKERELVAAAISSGDGTNYADSVKGRFTISRDNAKNTVYLQMNSLKPEDTAVYYCAADGPRDSYDYWGQGTQVTVSS | low polyreactivity
21 | QVQLVESGGGLVQAGGSLRLSCAASGSIFGGYAMGWYRQAPGKERELVARIRVSGGRTYYADSVKGRFTISRDNAKNTVYLQMISLKPEDTAVYYCAVDRYWWLDGYDYWGQGTQVTVSS | high polyreactivity
22 | QVQLVESGGGLVQAGGSLRLSCAASGITIVYYAMGWYRQAPGKERELVAAITRGGNTYYADSVKGRFTISRDNAKNTVYLQMNSLKPEDTAVYYCAAVGYYYSALDMDYWGQGTQVTVSS | low polyreactivity

Row | Sequence | polyreactivity (PSR sort gate)
23 | QVQLVESGGCLVQAGGSLRLSCAASGSIFVWNVMGWYRKAPGKERELVAAISWRGGTTYYADSVKGRFTISRDNAKNTVYLQMNSLKPEDTAVYYCAKQKHWSVHGGYNYWGQGTQVTVSS | high polyreactivity
24 | QVQLVESGGGLVQAGGSLRLSCPAYGSIFIGNAMGWYRQAPGKERELVAVISKGGGRTYYADSVKGRFTISRDNAKNTVYLQMNSLKPEDTAVYYCNTRNPDSGDYWGQGTQVTVSS | high polyreactivity
25 | QVQLVESGGGLVQAGGSLRLSCAASGLTFVYNTMGWYSQAPGKERELVAAISSSGGTTYYADSVKGRFTISRDTAKNTVYLQMNSLKPEDTAVYYCAARPSGGYESTRTRDYWGQGTHVTVSS | low polyreactivity
26 | QVQLVESGGGLVQAGGSLRLSCAASGFIFKKYVMGWYRQAPGKERELVAGSSRSGGSTYYADSVKGRFTISRDNAKNTVYVQMNSLKPEDTAVYYCAAYIYQSPTRGGGYWGQGTQVSVSS | high polyreactivity
27 | QVQLVESGGGLVQAGGSLRLSCAASGSIFDYNAMGWYTQAPGKERELVAAITSGGSTNYADSVKGRFTISRDNAKNTVYLQMNSLKPEDTAVYYCAADHDYYPSNLDYWGQGTQVTVSS | low polyreactivity
28 | QEQLQESGGGLVQACGSLRLSCAASGYIFSHQYMGWYRQAPGKERELVASISPRATTNYADSVKGRFTISRDNAKNTVYLQMNSLKPEDTAVYYYAVYQILDRRLSYWGQGTQVTVSC | high polyreactivity
29 | QVQLVESGGGLVQAGGSLRLSCAASGRTFYLNAMGWYRQAPGKEREFVARITWSGGSTYYADSVKGRFTISRDNAKNTVYLQMNSLKPEDTAVYYCIRLSSYHMDYWGQGTQVTVSS | high polyreactivity
30 | QVQLVESGGGLVQAGGSLRLSCAASGRTFRPYAMGWYRQAPGKERELVAVITSGDSTSYADSVKGRFTISRDNAKNTVYLQMNSLKPEDTAVYYCAADSYSGYNYWGQGTQVTVSS | low polyreactivity
31 | QVQLVESGGGLVHAGGSLRLSCAASGGTFSLNAMGWYRKAPGTERELVAAISKRSSTTYYADSVKGRFTISRDNAKNTVYLQMNSLKPEDTSVYYCAARVLRSRKPGRGYDYWGQGTQVTVSS | high polyreactivity
32 | QVQLVESGGGLVQAGGSLRLSCAASGSIFPPYAMGWYRQAPGKERELVASISNSGGSTYYADSVKGRFTISRDNAKNTVYLQMNSLKPEDTAVYYCAAYAVVSPSFTYGYWGQGTQVTVSS | high polyreactivity
33 | QVQLVESGGGLVQAGGSLRLSCAASGIIFYRYAMGWYRQAPAKERELVAAISRSGGSTYYADSVKGRFTISRDNAKNTVYLQMNSLKPEDTAVYYCAARVRTNYYGSYYYWGQGTQVTVSS | high polyreactivity
34 | QVQLVESGGGLVQAGGSLRLSCAASGLIFIAYAMGWYRQAPGKDRELVAAISSGGSTYADSVKRRFTISRDNAKNTVYLQMNSLKPEETAVYYCNADSWSGTTYFNFNYWGQGTQVTVSS | low polyreactivity
35 | QVQLVESGGGLVQAGGSLRLSCAASGRTFSYYAMGLYRQAPGKEREFVAAITWRGSSTYYADSVKGRFTISRDNAKNTVYLQMNSLKPEDTAVYYCNARATNVIWGRYDYWGQGTQVTVSS | high polyreactivity
36 | QVQLVESGGGLVQAGGSLRLSCAASGRTYGNYAMGWSRPAPGKERELVAGITYRSGRTYYADSVKGRFTISRDNAKITFYLQMNSLKPEDTAVYYCAAASYYLTPKHDYWGQGTQVTVSW | high polyreactivity
37 | QVQLVESGGGLVQAGGSLRLSCAASGYTFLAYAMGWYRQAPGKERELVAAISRSGVSTYYADSVKGRFTISRDNAKNTVYLQMNILKPEDTAFYYCAKGVRYQQYHIMYYWGQGTQVTVSS | high polyreactivity
38 | QVQLVESGGGLVQAGGSLRLSCAASGSNVYYAMGWYRQAPVKERELVAAINTSGGSTYYADSVKGRFTISRDNAKNTVYLQMNSLKPEDTAVYYCAAVYVGYITGFKRGYWGQGTQVTVSS | high polyreactivity
39 | QVQLVESGGGLVQAGGSLRLSCAASGFTFFSNAMGWNRQAPGKERELVAAIDWSGDNTNYADSVKGRFTISRDNAKNTVYLQLNSLKPEDTAVYYCAAVYSYYRLYAYPAYYYWGQGTQVTVSS | low polyreactivity
40 | QVQLVESGGGLVQAGGSLRLSCAASGSTFYSYAMGWYRQAPGKERELVAAITKGGGSTYYADSVKGRFTISRDNAKNTVYLQMNSLKPEDTAVYYCAAPGLYWYYTRSGYDYWGQGTQVTVSS | high polyreactivity
41 | QVQLVESGGGLVQAGGSLRLSCAASGRIFGNNAMGWYRQAPGKERELVATITRRGGSTYYADSVKGRFTISRDNAKNTVYLQMNSLKPEDTAVYYCAADRWPYWVAFYSWGQGTQVTVSS | high polyreactivity
42 | QVQLVESGGCLVQAGGSLRLSCAASGRTFINNAMGWYRQAPGKERELVAAISWDGGRTYYADSVKGRFTISRDNAKNTVYLQMNSLKPEDTAVYYCNAQPNYAYHGEDDYWGQGTQVTVSS | high polyreactivity
43 | QVQLVESGGGLVQAGGSLRLSCAASGFTFYSNAMGWYRQAPGKERELVAAISFSGTRTYYADSVKGRFTISRDNAKNTVYLQMNSLKPEDTAVYYCNAVAYNYPRTYDYWGQGTQVTVSS | high polyreactivity

Source: the nanobody polyreactivity screen of Harvey et al. (2022)
